In patent US20230355734A1 (VIRGINIA COMMONWEALTH UNIVERSITY, published 2023):

B1: FhbB2 of strain SP50, E45A or D58A site-directed mutant (receptor)
chain: FKMNTAQKAHYEAFIKVLEKAAERNPIDAQVVVEALGAVNIDALAKNLNYQVIDKKPGTDIATGTKAAELRKRFVPKKIKA
notes: also called FhbB2SP50 mutant; not shown: N-terminal hexa-histidine tag from vector pET46-Ek LIC
B2: FhbB3 of strain 33521, E45A or D58A site-directed mutant (receptor)
chain: FKMNTAQKAHYEAFISGLENAVKDNPMTAQNVKEGLDLANVGAAALNFKIVDKKAGTEIAKGTKAAELRKRFVPKKKA
notes: also called FhbB333521 mutant; not shown: N-terminal hexa-histidine tag from vector pET46-Ek LIC
B3: FhbB1 of strain 35405, E45A site-directed mutant (receptor)
chain: TFKMNTAQKAHYEKFINALENALKTRHIPAGAVIDMLAEINTEALALDYQIVDKKPGTSIAQGTKAAALRKRFIPKKIKA
notes: also called FhbB135405 mutant; not shown: N-terminal hexa-histidine tag from vector pET46-Ek LIC
B4: FhbB3 of strain 35404, E45A or D58A site-directed mutant (receptor)
chain: FKMNTAQNAHYEAFISGLERGAKDNPMLAQVVKAGLDLANDGAAALNYKIVDKKPGTDIAKGTKAAELRKRFIPKKIKT
notes: also called FhbB335404 mutant; not shown: N-terminal hexa-histidine tag from vector pET46-Ek LIC
B5: FhbB-ch4 tetravalent chimeric (FhbB135405-FhbB2SP50-FhbB333521-FhbB335404, mutated) (other)
chain: TFKMNTAQKAHYEKFINALENALKTRHIPAGAVIDMLAEINTEALALDYQIVDKKPGTSIAQGTKAAALRKRFIPKKIKAFKMNTAQKAHYEAFIKVLEKAAERNPIDAQVVVEALGAVNIDALAKNLNYQVIDKKPGTDIATGTKAAELRKRFVPKKIKAFKMNTAQKAHYEAFISGLENAVKDNPMTAQNVKEGLDLANVGAAALNFKIVDKKAGTEIAKGTKAAELRKRFVPKKKAFKMNTAQNAHYEAFISGLERGAKDNPMLAQVVKAGLDLANDGAAALNYKIVDKKPGTDIAKGTKAAELRKRFIPKKIK
notes: purified on nickel; also called Fhb-ch4; not shown: N-terminal hexa-histidine tag from vector pET46-Ek LIC
B6: FhbB-ch5 pentavalent chimeric (FhbB135405-FhbB2SP50-FhbB333521-FhbB335404-FhbB3SP64, mutated) (other)
chain: TFKMNTAQKAHYEKFINALENALKTRHIPAGAVIDMLAEINTEALALDYQIVDKKPGTSIAQGTKAAALRKRFIPKKIKAFKMNTAQKAHYEAFIKVLEKAAERNPIDAQVVVEALGAVNIDALAKNLNYQVIDKKPGTDIATGTKAAELRKRFVPKKIKAFKMNTAQKAHYEAFISGLENAVKDNPMTAQNVKEGLDLANVGAAALNFKIVDKKAGTEIAKGTKAAELRKRFVPKKKAFKMNTAQNAHYEAFISGLERGAKDNPMLAQVVKAGLDLANDGAAALNYKIVDKKPGTDIAKGTKAAELRKRFIPKKIKTFKMNTAQKAHYEAFIADLERAAKDNPMPAHIVKAGLDAANAIAATLNFKIVDKKAGTEIAKGTKAAELRKRFVPKKK
notes: purified on nickel; not shown: N-terminal hexa-histidine tag from vector pET46-Ek LIC
B7: FhbB3SP64E45A/D58A (receptor)
chain: FKMNTAQKAHYEAFIADLERAAKDNPMPAHIVKAGLDAANAIAATLNFKIVDKKAGTEIAKGTKAAELRKRFVPKKK
notes: also called FhbBSP64E45A/D58A; FhbB3SP64 mutant; not shown: N-terminal hexa-histidine tag from vector pET46-Ek LIC

biological target: T1, human Factor H (human, UniProt P08603 19-1231); experiment: ELISA, immobilized recombinant protein, FH in solution
T1 construct: Purified human FH bought from CompTech; added in solution at 10 ug/mL in the ELISA and 40 ug/mL in the cleavage assay; also called FH; human FH
T1 sequence (P08603 19-1231 limits assumed): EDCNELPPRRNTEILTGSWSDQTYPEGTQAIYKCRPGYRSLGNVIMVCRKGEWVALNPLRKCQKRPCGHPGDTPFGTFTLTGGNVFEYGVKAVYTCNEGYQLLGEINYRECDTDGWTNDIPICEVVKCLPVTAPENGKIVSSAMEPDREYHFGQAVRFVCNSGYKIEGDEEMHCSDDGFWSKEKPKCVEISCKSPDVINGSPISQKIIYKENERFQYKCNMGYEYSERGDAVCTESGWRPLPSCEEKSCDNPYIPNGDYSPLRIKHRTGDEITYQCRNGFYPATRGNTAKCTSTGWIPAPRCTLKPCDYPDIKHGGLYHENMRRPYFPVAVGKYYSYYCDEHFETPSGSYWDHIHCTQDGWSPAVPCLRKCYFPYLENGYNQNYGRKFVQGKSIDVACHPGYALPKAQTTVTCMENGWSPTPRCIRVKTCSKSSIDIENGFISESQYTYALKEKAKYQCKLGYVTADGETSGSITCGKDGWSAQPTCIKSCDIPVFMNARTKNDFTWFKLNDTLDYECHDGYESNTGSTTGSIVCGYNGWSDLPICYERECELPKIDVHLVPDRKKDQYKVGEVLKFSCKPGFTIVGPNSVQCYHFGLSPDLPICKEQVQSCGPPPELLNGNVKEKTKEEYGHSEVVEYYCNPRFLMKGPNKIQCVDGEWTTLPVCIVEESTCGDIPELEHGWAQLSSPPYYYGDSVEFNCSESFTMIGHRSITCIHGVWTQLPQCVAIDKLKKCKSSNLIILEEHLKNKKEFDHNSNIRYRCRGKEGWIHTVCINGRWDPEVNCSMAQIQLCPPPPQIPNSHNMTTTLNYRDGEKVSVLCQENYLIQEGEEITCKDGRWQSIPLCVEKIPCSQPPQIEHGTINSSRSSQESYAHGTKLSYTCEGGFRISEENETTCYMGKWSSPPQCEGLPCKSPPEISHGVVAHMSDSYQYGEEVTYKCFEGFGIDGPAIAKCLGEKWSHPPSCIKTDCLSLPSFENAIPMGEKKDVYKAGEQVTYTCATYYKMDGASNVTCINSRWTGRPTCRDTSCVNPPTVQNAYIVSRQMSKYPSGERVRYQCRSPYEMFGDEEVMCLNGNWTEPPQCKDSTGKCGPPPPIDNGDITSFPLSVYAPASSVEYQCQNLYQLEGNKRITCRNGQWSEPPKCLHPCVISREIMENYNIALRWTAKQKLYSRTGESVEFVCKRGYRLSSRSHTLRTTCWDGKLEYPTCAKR

Binder	binding result
B1	no binding (tested: 10 µg mL^-1 human FH)
B2	no binding (tested: 10 µg mL^-1 human FH)
B3	no binding (tested: 10 µg mL^-1 human FH)
B4	no binding (tested: 10 µg mL^-1 human FH)
B5	no binding (tested: 10 µg mL^-1 human FH)

biological target: T1, human Factor H; experiment: ELISA, immobilized recombinant protein, human FH 10 ug/mL

Binder	binding result
B6	binds
B7	binds
